Experiment [1] deals with S20 epitope peptide presented by HLA-A*02:01 on HepG2 cells (Hepatitis B virus, genotypes A and D; …). Put plainly: cell-based or functional assay.
Experiment [2] addresses T1, HBV surface antigen (HBsAg), S20-28, genotypes B and C peptide on HLA-A*02:01 (human).
T1 peptide: FLLTKILTI
Put plainly: cytokine release.

B1: B01 TCR (HBV S20 TCR, modified, expressed on B01 TCR-T cells) (TCR, V domains shown)
V domain 1: SQELEQSPQSLIVQEGKNLTINCTSSKTLYGLYWYKQKYGEGLIFLMMLQKGGEEKSHEKITAKLDEKKQQSSLHITASQPSHAGIYLCGADTSTDKLIFGTGTRLQVFP
V domain 2: KAGVTQTPRYLIKTRGQQVTLSCSPISGHRSVSWYQQTPGQGLQFLFEYFSETQRNKGNFPGRFSGRQFSNSRSEMNVSTLELGDSALYLCASSHGGAYEQYFGPGTRLTVTE
As to B1, the “killing ratio on HepG2-LMS-LG cells (RTCA, 48 h, E:T 2:1, 1:2, 1:8)” value in experiment [1] is greater than 60%.

B2: A01 TCR (TCR, V domains shown)
Valpha: QQGEEDPQALSIQEGENATMNCSYKTSINNLQWYRQNSGRGLVHLILIRSNEREKHSGRLRVTLDTSKKSSSLLITASRAADTASYFCATDERDDMRFGAGTRLTVKP
Vbeta: GVIQSPRHEVTEMGQEVTLRCKPISGHDYLFWYRQTMMRGLELLIYFNNNVPIDDSGMPEDRFSAKMPNASFSTLKIQPSEPRDSAVYFCASSLNTEAFFGQGTRLTVV
With B2, the binding result in experiment [2] is “recognises”.

B3: C01 TCR (TCR, V domains shown)
Valpha: QQGEEDPQALSIQEGENATMNCSYKTSINNLQWYRQNSGRGLVHLILIRSNEREKHSGRLRVTLDTSKKSSSLLITASRAADTASYFCATDAYGQNFVFGPGTRLSVLP
Vbeta: GVIQSPRHEVTEMGQEVTLRCKPISGHDYLFWYRQTMMRGLELLIYFNNNVPIDDSGMPEDRFSAKMPNASFSTLKIQPSEPRDSAVYFCASGSNTEAFFGQGTRLTVV
On to B3, for which the binding result in experiment [2] is reported as “recognises”.

B4: B01 TCR (TCR, V domains shown)
Valpha: QELEQSPQSLIVQEGKNLTINCTSSKTLYGLYWYKQKYGEGLIFLMMLQKGGEEKSHEKITAKLDEKKQQSSLHITASQPSHAGIYLCGADTSTDKLIFGTGTRLQVFP
Vbeta: GVTQTPRYLIKTRGQQVTLSCSPISGHRSVSWYQQTPGQGLQFLFEYFSETQRNKGNFPGRFSGRQFSNSRSEMNVSTLELGDSALYLCASSHGGAYEQYFGPGTRLTVT
B4: the binding result in experiment [2] is on record as “recognises”.

B5: C01 TCR (HBV S20 TCR, modified, expressed on C01 TCR-T cells) (TCR, V domains shown)
V domain 1: SQQGEEDPQALSIQEGENATMNCSYKTSINNLQWYRQNSGRGLVHLILIRSNEREKHSGRLRVTLDTSKKSSSLLITASRAADTASYFCATDAYGQNFVFGPGTRLSVLP
V domain 2: GVIQSPRHEVTEMGQEVTLRCKPISGHDYLFWYRQTMMRGLELLIYFNNNVPIDDSGMPEDRFSAKMPNASFSTLKIQPSEPRDSAVYFCASGSNTEAFFGQGTRLTVVE
On to B5, for which the “killing ratio on HepG2-LMS-LG cells (RTCA, 48 h, E:T 2:1, 1:2, 1:8)” value in experiment [1] is greater than 60%.
